Series [1] addresses T1, CXCL9 (MIG) (Homo sapiens) (UniProt Q07325).
T1 sequence: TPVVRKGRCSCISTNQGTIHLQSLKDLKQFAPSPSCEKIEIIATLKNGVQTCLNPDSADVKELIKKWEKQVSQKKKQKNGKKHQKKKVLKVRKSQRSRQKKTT
As to the kind of experiment: ELONA. As to conditions: n=2.

For a further series, the target named is T2, CXCL11 (Homo sapiens) (UniProt O14625).
T2 sequence: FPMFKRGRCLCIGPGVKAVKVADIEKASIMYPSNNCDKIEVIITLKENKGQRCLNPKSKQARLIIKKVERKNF
As to the kind of experiment: ELONA. As to conditions: n=2.

Series [2] concerns the target T3, CXCL9 (MIG) (Homo sapiens, UniProt Q07325 Q07325:23-125).
T3 sequence: T1 sequence
As to the kind of experiment: flow; scrambled non-binding control. As to conditions: tags: Origene; immobilised on magnetic beads for flow cytometry; label: 5' Cy5. The protocol: The binding of indole-modified aptamer of SEQ ID NO: 5 (I29 In), unmodified aptamer of SEQ ID NO: 6 (G123 DNA), and indole-modified aptamer of SEQ ID NO: 4 (G123 In) to pro-inflammatory chemokine CXCL9 was determined in competition assay. 100 nM Cy-5 labelled DNA was incubated simultaneous with 1 μM unlabelled DNA and thus competed for binding. After incubation the remaining Cy5 labelled DNA on CXCL9-magnetic beads was analysed with flow cytometry as described above. As control, Cy5-labeled DNA without competitor was analysed and was used to normalize data.
Binding of Cy5 labelled scrambled sequence is used as non-binding control. (n=2, mean±SD).

Series [3] concerns the target T3, CXCL9 (MIG). As to the kind of experiment: ELONA; n=2. As to conditions: tags: Origene; immobilised on magnetic beads for flow cytometry; label: 5' biotin or Cy5; G4. The protocol:
(§1) 20 μl of 1 μg/ml protein in bicarbonate/carbonate buffer pH 9.6 was coated overnight at 4° C. on 96 well half area plates (Greiner Bio). After washing three times with 100 μL WB1 (PBS+0.05% Tween 20), wells were blocked with 1% BSA in PBS for 2 h at RT with slight agitation. […] Wells were washed once with 100 μL WB2 (138 mM NaCl, 5 mM KCl, 1.5 mM KH₂PO₄, 8.1 mM Na₂HPO₄, 170 mM urea, 7 mM ammonium acetate, 1 mM MgCl₂, 1 mM CaCl₂), pH 6.5).
DNA was diluted to respective concentration in SB1 and 20 μL is transferred onto the wells in duplicates (protein and BSA wells). After incubation of 30 min at RT and slight agitation, the wells were washed two times with 100 μL WB1 and are incubated with 20 μL of streptavidin-horseradish peroxidase (SA-HRP) solution (1:1000 in PBS, GE Healtcare). After 30 min incubation at RT the wells were washed again twice with 100 μL WB1. Finally, the complex was incubated with 1-Step ABTS (ThermoFisher) for 15-40 min at RT, slight agitation. Absorbance at 405 nm was read out with a Tecan Nanoquant plate reader. […]
In parallel, the influence of indole (In) modification and azide without modification (E) on the affinity of aptamer SEQ ID NO: 4 (G123) was determined using ELONA and compared to the affinity of unmodified DNA (DNA). […] In the table, “+” represents successful binding, while “−” means no detection of binding, “n.d.” denotes not determined.
For orientation: In flow cytometry, cells or beads pass a laser one at a time.

Series [4] addresses sCD25 (soluble interleukin-2 receptor) (Homo sapiens, UniProt P01589 P01589:22-240). As to the kind of experiment: ELONA; DNA at 2x KD. The note with it: tags: Antikorper online; label: 5' biotin or Cy5; G4. On the procedure: as §1
(§2) DNA was diluted to respective concentration in SB1 and 20 μL is transferred onto the wells in duplicates (protein and BSA wells). After incubation of 30 min at RT and slight agitation, the wells were washed two times with 100 μL WB1 and are incubated with 20 μL of streptavidin-horseradish peroxidase (SA-HRP) solution (1:1000 in PBS, GE Healtcare). After 30 min incubation at RT the wells were washed again twice with 100 μL WB1. Finally, the complex was incubated with 1-Step ABTS (ThermoFisher) for 15-40 min at RT, slight agitation. Absorbance at 405 nm was read out with a Tecan Nanoquant plate reader. Binding of DNA to BSA background was subtracted from binding of DNA to protein sample.
(§3) Binding of aptamers of SEQ ID NO: 4 (G123) and SEQ ID NO: 5 (I29) to different proteins was determined using ELONA. […] The pro-inflammatory chemokines CXCL9, CXCL10, CXCL11, and CXCL1 were used, as well as soluble interleukin-2 receptor (sCD25), C-reactive protein (CRP), C—C motif chemokine ligand 17 (CCL17), C—C motif chemokine ligand 22 (CCL22), C—C motif chemokine ligand 3(CCL3) and human serum albumin (HAS).

In another series the target is CCL3 (Homo sapiens, UniProt P10147 P10147:24-92). As to the kind of experiment: ELONA; DNA at 2x KD. As to conditions: tags: Peprotech; label: 5' biotin or Cy5; G4. The protocol:
as §1, §2, §3

Another series has as its target CCL17 (Homo sapiens, UniProt Q92583 Q92583:24-94). As to the kind of experiment: ELONA; DNA at 2x KD. As to conditions: tags: BioLegend; label: 5' biotin or Cy5; G4. On the procedure: as §1, §2, §3
The target in another series is CXCL10 (Homo sapiens, UniProt P02778 P02778:22-98). As to the kind of experiment: ELONA; DNA at 2x KD. The note with it: tags: Cell guidance system; label: 5' biotin or Cy5; G4. The protocol: as §1, §2, §3
The target in the next series is T4, CRP (C-reactive protein) (Homo sapiens, UniProt P02741 P02741:19-224).
T4 sequence: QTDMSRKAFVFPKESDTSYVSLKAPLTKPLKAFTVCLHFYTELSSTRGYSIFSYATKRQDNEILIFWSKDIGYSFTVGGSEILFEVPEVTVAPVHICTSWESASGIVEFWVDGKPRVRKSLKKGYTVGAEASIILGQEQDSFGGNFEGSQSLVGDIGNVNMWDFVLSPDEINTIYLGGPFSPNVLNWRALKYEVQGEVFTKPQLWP
As to the kind of experiment: ELONA; DNA at 2x KD. As to conditions: tags: BioRad; chain copies: 5; label: 5' biotin or Cy5; G4. On the procedure: as §1, §2, §3

The target in a further series is T5, CCL22 (Homo sapiens, UniProt O00626 O00626:25-93).
T5 sequence: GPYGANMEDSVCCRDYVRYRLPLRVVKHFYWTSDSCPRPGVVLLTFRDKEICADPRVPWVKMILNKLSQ
As to the kind of experiment: ELONA; DNA at 2x KD. As to conditions: tags: BioLegend; label: 5' biotin or Cy5; G4. The protocol: as §1, §2, §3

The target in another series is CXCL1 (Homo sapiens, UniProt P09341 P09341:35-107). As to the kind of experiment: ELONA; DNA at 2x KD. The note with it: tags: Cell guidance system; label: 5' biotin or Cy5; G4. The protocol: as §1, §2, §3
Series [5] addresses HSA (human serum albumin) (Homo sapiens, UniProt P02768 P02768:25-609). As to the kind of experiment: ELONA; DNA at 2x KD. The note with it: tags: Sigma-Aldrich; label: 5' biotin or Cy5; G4. The protocol: as §1, §2, §3
A further series concerns the target T6, CXCL11 (Homo sapiens, UniProt O14625 O14625:22-94).
T6 sequence: T2 sequence
As to the kind of experiment: ELONA; n=2. As to conditions: tags: Cell guidance system; label: 5' biotin or Cy5; G4. On the procedure: as §1, §2

Where [6] appears, read: indole-clicked EdU at all N (28,44,47,49,50) [28,44,47,49,50 (indole-clicked EdU)].
Setting [7] is: indole-clicked EdU at all N [31,45,49,53 (indole-clicked EdU)].

Sequence of CXCL10 (P02778 22-98, one chain of several): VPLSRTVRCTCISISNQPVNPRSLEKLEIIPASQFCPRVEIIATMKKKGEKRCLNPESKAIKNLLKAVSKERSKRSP
Sequence of CXCL1 (P09341 35-107, one chain of several): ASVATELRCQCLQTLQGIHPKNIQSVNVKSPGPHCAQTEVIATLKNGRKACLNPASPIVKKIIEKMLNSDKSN
Sequence of CCL3 (P10147 24-92, one chain of several): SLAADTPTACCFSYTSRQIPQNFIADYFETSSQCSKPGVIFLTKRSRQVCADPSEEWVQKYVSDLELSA
Sequence of sCD25 (soluble interleukin-2 receptor) (P01589 22-240, one chain of several): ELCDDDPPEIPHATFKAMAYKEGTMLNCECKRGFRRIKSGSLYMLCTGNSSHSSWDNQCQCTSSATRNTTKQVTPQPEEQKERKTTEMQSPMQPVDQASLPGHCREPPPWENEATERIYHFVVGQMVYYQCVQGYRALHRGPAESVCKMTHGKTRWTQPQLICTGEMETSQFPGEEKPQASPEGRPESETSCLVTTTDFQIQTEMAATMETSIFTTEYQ
Sequence of CCL17 (Q92583 24-94, one chain of several): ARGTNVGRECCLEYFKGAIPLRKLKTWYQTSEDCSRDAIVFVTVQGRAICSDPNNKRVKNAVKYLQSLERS
Sequence of HSA (human serum albumin) (P02768 25-609, one chain of several): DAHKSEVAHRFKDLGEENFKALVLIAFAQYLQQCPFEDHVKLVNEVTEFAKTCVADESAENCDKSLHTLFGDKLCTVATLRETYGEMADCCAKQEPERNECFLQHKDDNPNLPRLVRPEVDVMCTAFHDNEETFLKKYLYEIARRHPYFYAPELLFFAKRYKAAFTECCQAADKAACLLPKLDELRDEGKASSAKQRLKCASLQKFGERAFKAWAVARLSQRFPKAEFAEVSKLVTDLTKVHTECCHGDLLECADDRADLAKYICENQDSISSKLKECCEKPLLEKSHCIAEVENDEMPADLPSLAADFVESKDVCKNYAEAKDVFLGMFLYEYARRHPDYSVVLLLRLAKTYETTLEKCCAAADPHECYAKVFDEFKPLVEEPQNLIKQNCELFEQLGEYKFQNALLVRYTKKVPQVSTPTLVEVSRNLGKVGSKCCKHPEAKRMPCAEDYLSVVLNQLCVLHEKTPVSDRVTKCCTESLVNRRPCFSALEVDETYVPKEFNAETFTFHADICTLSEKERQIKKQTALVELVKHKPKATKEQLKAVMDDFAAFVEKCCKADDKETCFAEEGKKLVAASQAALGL

The Kd is the concentration at which binding is half-saturated. “CACGACGCAAGGGACCACAGGAGAGACTCACGGGCGGGCGACCTACTGTTCAGCCCAGACCGACAGCACGACACCGCAGAGGCA [I29 Phe]”: the Kd in series [1] (phenol-clicked EdU at all N [28,44,47,49,50 (phenol-clicked EdU)]) was found to be 177 nM.

As for “CACGACGCAAGGGACCACAGGAGAGACTCACGGGCGGGCGACCTACTGTTCAGCCCAGACCGACAGCACGACACCGCAGAGGCA [I29 In]”, the Kd is 17 nM with CXCL11 (Homo sapiens) (setting [6]) and 12 nM in series [1] (setting [6]).

Take “CACGACGCAAGGGACCACAGGGAGGGAGGGTGGGCAAAGGGCCCTAAGTCCGTAACAAAAACACAGCACGACACCGCAGAGGCA [G123 In]”: the Kd came out at 73 nM in the series with CXCL11 (Homo sapiens) (setting [7]) and 39 nM in series [1] (setting [7]).

For “CACGACGCAAGGGACCACAGGAGAGACTCACGGGCGGGCGACCTACTGTTCAGCCCAGACCGACAGCACGACACCGCAGAGGCA [I29 BnFu]”, the Kd in series [1] (benzofurane-clicked EdU at all N [28,44,47,49,50 (benzofurane-clicked EdU)]) was 17 nM.

Consider “CACGACGCAAGGGACCACAGGAGAGACTCACGGGCGGGCGACCTACTGTTCAGCCCAGACCGACAGCACGACACCGCAGAGGCA [I29 Naph]”, for which, in [1] (naphthalene-clicked EdU at all N [28,44,47,49,50 (naphthalene-clicked EdU)]), the Kd is 21 nM. This counts as double-digit nanomolar.

B1: G123.sc (ssDNA)
DNA: CACGACGCAAGGGACCACAGGAGGAGAGTAGGCGATACACGACGTAGCGCAGATAGGACCAAGCAGCACGACACCGCAGAGGCA
modifications: N = T or EdU [29,36,45,54 (T or EdU)]
Consider B1, for which the binding result in the series with CXCL9 (MIG) [2] is recorded as “no binding”.

B2: G123 DNA (ssDNA)
DNA: CACGACGCAAGGGACCACAGGGAGGGAGGGTGGGCAAAGGGCCCTAAGTCCGTAACAAAAACACAGCACGACACCGCAGAGGCA
For the molecule B2, the Kd with CXCL9 (MIG) [3] was 92 nM; with CXCL11 it was 249 nM. For the same molecule, the binding result (in series [4]; in the series with CCL3; with CCL17; with CXCL10; with CRP (C-reactive protein); with CCL22) was “no binding” each time. Also, the binding result (with CXCL1; in [5]) was “no binding” each time.

Values taken from patent US20230358760, “APTAMERS THAT TARGET CXCL9” (RHEINISCHE FRIEDRICH-WILHELMS-UNIVERSITÄt BONN, published 2023).
